# Target: T1, M2 protein expressed on A/PR/8/34 infected MDCK cells (influenza A virus A/PR/8/34, UniProt P06821 1-97)
# T1 construct: whole, on cells
# Experiment: cell-based ELISA, half-saturating antibody concentration
# T1 sequence (P06821 whole entry): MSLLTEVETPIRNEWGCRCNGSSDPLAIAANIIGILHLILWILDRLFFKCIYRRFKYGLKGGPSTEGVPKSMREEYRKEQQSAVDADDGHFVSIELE
row,Binder,Kd [nM]
1,"human anti-M2 monoclonal antibody C40G1 (antibody, V domains shown) VH: QLQLQESGPGLVKPSETLSLTCTVSGGSISSSFYYCGWIRQPPGKGLEWIGSIYYRGSTYYNPSLKSRVTISVDTSKNQFSLKLSSVTAADTAVYYCARRVTMVRGVKGDYFDYWGQGTLVTVSS VL: DIQMTQSPSSLSASVGDRVTITCRASQGISSWLAWYQQKPEKVPKSLIYAASSLQSGVPSRFSGSGSGTDFTLTISSLQPEDFATYYCQQYNYYPLTFGGGTKVEIKR",0.519
2,"human anti-M2 monoclonal antibody no. Z3G1 (recombinant IgG1 type Z3, CHO; ATCC PTA-5967) (antibody, V domains shown) VH: QVQLVQSGAEVKKPGASVKVSCKASGYTFTSYGISWVRQAPGQGLEWMGWISAYNGNTNYAQKLQGRVTMTTDTSTSTAYMELRSLRSDDTAVYYCARAAAGGYFQHWGQGTLVTVSS VL: not shown",0.497
3,"human anti-M2 monoclonal antibody N547 (antibody, V domains shown) VH: not shown VL: QSVLTQPPSMSAAPGQKVTISCSGSSSNIGNNYISWYQQLPGTAPKVLIYDNNKRPSGIPDRFSGSKSGTSATLGITGLQTGDEADYYCGSWDSSLSAGVFGTGTKVTVLG",1.05
4,"human anti-M2 monoclonal antibody L66 (antibody, V domains shown) VH: EVQLVESGGGVVRPGGSLRLSCAASGFTFDDYGMSWVRQAPGKGLEWVSGINWNGGSTGYADSVKGRFTISRDNAKNSLYLQMNSLRAEDTALYYCARDRVTMVRGVIMDYYGMDVWGQGTTVTVSS VL: QTVVTQEPSLTVSPRGTVTLTCSSSTGAVTSGYYPGWFQLKPGQAPMSLIYSARKKHSWTPARFSGSLLGGKAALTLSGVQPEDEAEYYCLLYYGGAYVFGTGTKVTVLG",0.563

# Reference: patent publication US20090196872A1 (KIRIN BEER, published 2009)
